Results: article PMC7376604 (Cell reports, 2020)

What was measured:
[1] = target: human GLP-1 receptor (GLP-1R) (human) (UniProt P43220)
shrews (Suncus murinus) = experiment: Food intake and body weight; type: in vivo; conditions: shrew, albiglutide 0.5 and 5 mg/kg i.p.

Sequence of UniProt P43220 (P43220 24-463): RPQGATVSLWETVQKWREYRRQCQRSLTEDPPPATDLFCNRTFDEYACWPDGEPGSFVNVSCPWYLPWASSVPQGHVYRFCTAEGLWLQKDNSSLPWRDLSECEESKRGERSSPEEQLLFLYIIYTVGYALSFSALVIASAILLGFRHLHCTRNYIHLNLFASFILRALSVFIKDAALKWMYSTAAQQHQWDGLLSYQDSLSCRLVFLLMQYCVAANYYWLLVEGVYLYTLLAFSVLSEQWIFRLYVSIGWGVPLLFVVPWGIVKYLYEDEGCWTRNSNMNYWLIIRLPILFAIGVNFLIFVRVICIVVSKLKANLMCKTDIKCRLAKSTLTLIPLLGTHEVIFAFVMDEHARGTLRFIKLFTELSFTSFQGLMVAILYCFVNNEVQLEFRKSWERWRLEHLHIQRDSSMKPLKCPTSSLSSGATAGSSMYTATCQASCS

Q: For HC-Cbi-Ex4 (complex), which EC50 of agonism at the GLP-1R [1] is on record?
A: 3 nM

Q: Which “anorexia and body-weight loss” value (shrews (Suncus murinus)) does the source give for albiglutide here?
A: did not cause anorexia and body-weight loss
